Experiment [1] addresses T1, recombinant human FcεRIa extracellular region-mouse IgG2a Fc-6×His fusion protein (human, UniProt P12319 26-205).
T1 chain (part 1 of 2): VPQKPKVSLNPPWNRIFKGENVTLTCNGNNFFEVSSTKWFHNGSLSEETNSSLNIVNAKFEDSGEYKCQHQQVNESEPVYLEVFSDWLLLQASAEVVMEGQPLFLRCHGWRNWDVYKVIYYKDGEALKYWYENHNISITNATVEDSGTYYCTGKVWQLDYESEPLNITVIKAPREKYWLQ
T1 chain (part 2 of 2): HHHHHH
The experiment in a line: BLI.

For experiment [2], the target named is T2, recombinantly expressed human FcεRIa-Fc protein (human, UniProt P12319 26-205).
T2 chain: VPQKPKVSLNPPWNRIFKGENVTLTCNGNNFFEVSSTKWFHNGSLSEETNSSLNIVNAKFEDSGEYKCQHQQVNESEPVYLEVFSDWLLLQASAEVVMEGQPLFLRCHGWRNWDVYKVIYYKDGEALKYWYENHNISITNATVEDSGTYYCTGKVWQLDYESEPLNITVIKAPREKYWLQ
Put plainly: blocking ELISA; blocking human IgE binding.

The target of experiment [3] is T2, recombinantly expressed human FcεRIa-Fc …. Put plainly: blocking ELISA; blocking human IgE binding.
For experiment [4] the target is unchanged. The experiment in a line: blocking ELISA; blocking human IgE binding.

Where two headings read alike, the source gives them in different places.

B1: binding protein DB364 (designed binder)
chain: DFTPPTVKILQSSCDGGGHFPPTIQLLCLVSGYTPGTINITWLEDGQVMDVDLSTASTTQEGELASTQSELTLSQKHWLSDRTYTCQVTYQGHTFEDSTKKCADSNPRGVSVFLFPPKPKDTLMISRTPEVTCVVVDLAPSKGTVKFNWYVDGVEVHNAKTKPREKQRNGTLTVVSVLTVLHQDWLNGKEYKCKVTHPHLPRALEKTISKAKGQPREPQVYTLPPSREEMTKNQVSLTCLVKGFYPSDIAVEWESNGQPENNYKTTPPVLDSDGSFFLYSKLTVDKSRWQQGNVFSCSVMHEALHNHYTQKSLSLSPGK
For B1, in experiment [1], the Kd turned out to be 1.78 nM. For the same molecule, the IC50 in experiment [2] was determined as 15.7 nM.

B2: binding protein DB-B64 (designed binder)
chain: CPAPELLGGPSVFLFPPKPKDTLMISRTPEVTCVVVDLAPSKGTVKFNWYVDGVEVHNAKTKPREKQRNGTLTVVSVLTVLHQDWLNGKEYKCKVTHPHLPRALEKTISKAKGQPREPQVYTLPPSREEMTKNQVSLTCLVKGFYPSDIAVEWESNGQPENNYKTTPPVLDSDGSFFLYSKLTVDKSRWQQGNVFSCSVMHEALHNHYTQKSLSLSPGK
With B2, in experiment [1], the Kd was 4.68 nM. In addition, the EC50 in experiment [3] was found to be 24.5 nM.

B3: binding protein DB365 (designed binder)
chain: TKKCADSNPRGVSVFLFPPKPKDTLMISRTPEVTCVVVDLAPSKGTVKFNWYVDGVEVHNAKTKPREKQRNGTLTVVSVLTVLHQDWLNGKEYKCKVTHPHLPRALEKTISKAKGQPREPQVYTLPPSREEMTKNQVSLTCLVKGFYPSDIAVEWESNGQPENNYKTTPPVLDSDGSFFLYSKLTVDKSRWQQGNVFSCSVMHEALHNHYTQKSLSLSPGK
In the case of B3, in experiment [1], the Kd stood at 0.719 nM. Moreover, the IC50 in experiment [2] was 12.8 nM.

B4: Her2-specific binding protein DB872 (antibody)
heavy: EVQLVESGGGLVQPGGSLRLSCAASGFTFTDYTMDWVRQAPGKGLEWVADVNPNSGGSIYNQRFKGRFTLSVDRSKNTLYLQMNSLRAEDTAVYYCARNLGPSFYFDYWGQGTLVTVSSASTKGPSVFPLAPSSKSTSGGTAALGCLVKDYFPEPVTVSWNSGALTSGVHTFPAVLQSSGLYSLSSVVTVPSSSLGTQTYICNVNHKPSNTKVDKKVEPKSCDKTHTCPPCPADSNPRGVSVFLFPPKPKDTLMISRTPEVTCVVVDLAPSKGTVKFNWYVDGVEVHNAKTKPREKQRNGTLTVVSVLTVLHQDWLNGKEYKCKVTHPHLPRALEKTISKAKGQPREPQVYTLPPSREEMTKNQVSLTCLVKGFYPSDIAVEWESNGQPENNYKTTPPVLDSDGSFFLYSKLTVDKSRWQQGNVFSCSVMHEALHNHYTQKSLSLSPGK
light: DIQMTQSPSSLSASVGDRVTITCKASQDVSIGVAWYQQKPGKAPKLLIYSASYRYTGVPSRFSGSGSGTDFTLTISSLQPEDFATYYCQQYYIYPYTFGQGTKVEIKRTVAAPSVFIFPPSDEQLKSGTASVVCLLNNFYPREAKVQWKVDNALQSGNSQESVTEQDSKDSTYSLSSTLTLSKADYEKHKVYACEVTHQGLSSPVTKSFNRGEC
Consider B4, for which, in experiment [1], the Kd is 1.81 nM. The IC50 in experiment [4] amounted to 77.4 nM.

B5: Her2-specific binding protein DB871 (antibody)
heavy: EVQLVESGGGLVQPGGSLRLSCAASGFTFTDYTMDWVRQAPGKGLEWVADVNPNSGGSIYNQRFKGRFTLSVDRSKNTLYLQMNSLRAEDTAVYYCARNLGPSFYFDYWGQGTLVTVSSASTKGPSVFPLAPSSKSTSGGTAALGCLVKDYFPEPVTVSWNSGALTSGVHTFPAVLQSSGLYSLSSVVTVPSSSLGTQTYICNVNHKPSNTKVDKKVEPKSCSRDFTPPTVKILQSSCDGGGHFPPTIQLLCLVSGYTPGTINITWLEDGQVMDVDLSTASTTQEGELASTQSELTLSQKHWLSDRTYTCQVTYQGHTFEDSTKKCADSNPRGVSVFLFPPKPKDTLMISRTPEVTCVVVDLAPSKGTVKFNWYVDGVEVHNAKTKPREKQRNGTLTVVSVLTVLHQDWLNGKEYKCKVTHPHLPRALEKTISKAKGQPREPQVYTLPPSREEMTKNQVSLTCLVKGFYPSDIAVEWESNGQPENNYKTTPPVLDSDGSFFLYSKLTVDKSRWQQGNVFSCSVMHEALHNHYTQKSLSLSPGK
light: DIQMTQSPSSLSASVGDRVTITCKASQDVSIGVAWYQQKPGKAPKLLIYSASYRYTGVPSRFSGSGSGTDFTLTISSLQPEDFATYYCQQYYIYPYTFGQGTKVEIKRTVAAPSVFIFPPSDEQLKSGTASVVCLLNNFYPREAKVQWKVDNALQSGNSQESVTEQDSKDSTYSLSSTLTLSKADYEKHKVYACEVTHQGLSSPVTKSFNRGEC
Take B5: the Kd in experiment [1] is 1.91 nM. Further, in experiment [4], the IC50 stood at 61.2 nM.

B6: binding protein DB177 (designed binder)
chain: CSRDFTPPTVKILQSSCDGGGHFPPTIQLLCLVSGYTPGTINITWLEDGQVMDVDLSTASTTQEGELASTQSELTLSQKHWLSDRTYTCQVTYQGHTFEDSTKKCADSNPRGVSVFLFPPKPKDTLMISRTPEVTCVVVDLAPSKGTVKFNWYVDGVEVHNAKTKPREKQRNGTLTVVSVLTVLHQDWLNGKEYKCKVTHPHLPRALEKTISKAKGQPREPQVYTLPPSREEMTKNQVSLTCLVKGFYPSDIAVEWESNGQPENNYKTTPPVLDSDGSFFLYSKLTVDKSRWQQGNVFSCSVMHEALHNHYTQKSLSLSPGK
With B6, the IC50 in experiment [2] came to 18.4 nM.

B7: binding protein DB366 (designed binder)
chain: CADSNPRGVSVFLFPPKPKDTLMISRTPEVTCVVVDLAPSKGTVKFNWYVDGVEVHNAKTKPREKQRNGTLTVVSVLTVLHQDWLNGKEYKCKVTHPHLPRALEKTISKAKGQPREPQVYTLPPSREEMTKNQVSLTCLVKGFYPSDIAVEWESNGQPENNYKTTPPVLDSDGSFFLYSKLTVDKSRWQQGNVFSCSVMHEALHNHYTQKSLSLSPGK
In the case of B7, the Kd in experiment [1] worked out at 1.68 nM. Moreover, in experiment [3], the EC50 was found to be 8.94 nM. For the same molecule, the IC50 in experiment [4] was 59.7 nM; in experiment [2], 16.2 nM.

B8: binding protein DB-B63 (designed binder)
chain: CADSNPRGVSVFLFPPKPKDTLMISRTPEVTCVVVDLAPSKGTVNFNWYVDGVEVHNAKTKPREKQRNGTLTVVSVLTVLHQDWLNGKEYKCRVTHPHLPRALEKTISKAKGQPREPQVYTLPPSREEMTKNQVSLTCLVKGFYPSDIAVEWESNGQPENNYKTTPPVLDSDGSFFLYSKLTVDKSRWQQGNVFSCSVMHEALHNHYTQKSLSLSPGK
For the molecule B8, the EC50 in experiment [3] is 6.52 nM.

Source of the values: US20260103522A1 (published 2026).
